Here are results for 28 sequences from the supplement of paper PMC9170038.

The subject of this series is MS2 coat protein. Kind of series: apparent KD of MS2 coat protein; designed switch direction (-1 OFF switch, 1 ON switch): 1; higher = weaker reporter binding. The gist of the method: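 Transcription of designed RNA switches on Illumina chips was done by stalled E. coli RNA polymerase. SNAP-549-labelled MS2 coat protein was then titrated in doubling steps from 0.7 or 1.5 nM to 3 µM, with steps of 0.8–1.5 h at the lowest and 10–20 min at the highest concentration. The per-design median over clusters of curve-fitted normalised fluorescence is reported as apparent KD.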

The mark [1] stands for this setting: Eterna round: R95, input ligand: FMN 200 uM.
The mark [2] stands for this setting: Eterna round: R95, input ligand: microRNA oligo, concentration not stated.
The mark [3] stands for this setting: Eterna round: R95, input ligand: none.
Where [4] appears, read: input ligand: microRNA oligo, concentration not stated.

As to “AGUCCAGCCUGAGCUGGACAAAAGCAUGUACAUGAGGAUCACCCAUGUCAUGUGCAAGCUUUUUGCUCGUCUUAAAA [Zipper 46 - 6] (puzzle: Sensor for hsa-mir-208a)”, the “apparent KD of MS2 coat protein” value runs as follows: under setting [1], 61 nM; under setting [2], 11.6 nM; under setting [3], 67.9 nM.

As to “AGUCCAGCCUGAGCUGGACAAAAGCAUGUACAUGAGGAUCACCCAUGUUCAUGUACAAGCUUUUUGCUCGUCAUAAA [Mat - hsa-mir-208a - Mod of JL - 51] (puzzle: Sensor for hsa-mir-208a)”, the “apparent KD of MS2 coat protein” value under setting [1] came out at 402 nM, the “apparent KD of MS2 coat protein” value under setting [2] was 14.9 nM and the “apparent KD of MS2 coat protein” value under setting [3] came to 474 nM.

As to “AGUCCAGCCUGAGCUGGACAAAAGCAUGUACAUGAGGAUCACCCAUGUUCAUGUACAAGCUUUUUGCUCGUCGUAAU [Mat - hsa-mir-208a - Mod of JL - 48] (puzzle: Sensor for hsa-mir-208a)”, the “apparent KD of MS2 coat protein” value under setting [1] amounted to 501 nM, the “apparent KD of MS2 coat protein” value under setting [2] was determined as 16.7 nM and the “apparent KD of MS2 coat protein” value under setting [3] worked out at 611 nM.

“AGUCCAGCCUGAGCUGGACAAAAGCAUGUACAUGAGGAUCACCCAUGUUCAUGUACAAGCUUUUUGCUCGUCUUAAC [salish99_208a_r3_029] (puzzle: Sensor for hsa-mir-208a)”: the “apparent KD of MS2 coat protein” value was found to be 553 nM under setting [1], 16.8 nM under setting [2] and 636 nM under setting [3].

In the case of “AGUCCAGCCUGAGCUGGACAAAAGCAUGUACAUGAGGAUCACCCAUGUUCAUGUACAAGCUUUUUGCUCGUCUUUAA [salish99_208a_r3_096x] (Eterna round: R96, puzzle: Sensor for hsa-mir-208a)”, the “apparent KD of MS2 coat protein” value worked out at 559 nM (input ligand: FMN 200 uM), 14.5 nM under setting [4] and 577 nM (input ligand: none).

With “AGUCCAGCCUGAGCUGGACAAAAGCAUGUACAUGAGGAUCACCCAUGUUCAUGUACAAGCUUUUUGCUCGUCUUUAA [salish99_208a_r3_096x] (puzzle: Sensor for hsa-mir-208a)”, the “apparent KD of MS2 coat protein” value under setting [1] turned out to be 658 nM, the “apparent KD of MS2 coat protein” value under setting [2] turned out to be 14.5 nM and the “apparent KD of MS2 coat protein” value under setting [3] came out at 985 nM.

“AGUCCAGCCUGAGCUGGACAAAUGCAUGUACAUGAGGAUCACCCAUGUUCAUGUACAAGCAUUUUGCUCGUCUUAAA [Sensor for hsa-mir-208a (JL zipper 55 mod - 61 to A)] (Eterna round: R96, puzzle: Sensor for hsa-mir-208a)”: the “apparent KD of MS2 coat protein” value was 330 nM (input ligand: FMN 200 uM), 13.5 nM under setting [4] and 346 nM (input ligand: none).

Turning to “AGUCCAGCCUGAGCUGGACGAAAGCAUGUACAUGAGGAUCACCCAUGUCAUGUACAAGCUUUUUGCUCGUCUUAAAA [Zipper 46 - 4] (puzzle: Sensor for hsa-mir-208a)”, the “apparent KD of MS2 coat protein” value runs as follows: under setting [1], 482 nM; under setting [2], 15 nM; under setting [3], 532 nM.

For the sequence “AGUCCAGCCUGAGCUGGACUGAAGCAUGUACAUGAGGAUCACCCAUGUUCAUGUACAGGCUUUUUGCUCGUCUUAUG [JL-shm-2.02 JL mod] (Eterna round: R96, puzzle: Sensor for hsa-mir-208a)”, the “apparent KD of MS2 coat protein” value (input ligand: FMN 200 uM) was found to be 619 nM, the “apparent KD of MS2 coat protein” value under setting [4] amounted to 14.6 nM and the “apparent KD of MS2 coat protein” value (input ligand: none) is 676 nM.

In the case of “AGUCCAGCCUGAGCUGGACUGAAGCAUGUACAUGAGGAUCACCCAUGUUCAUGUACAGGCUUUUUGCUCGUCUUAUG [JL-shm-2.02 JL mod] (puzzle: Sensor for hsa-mir-208a)”, the “apparent KD of MS2 coat protein” value under setting [1] amounted to 842 nM, the “apparent KD of MS2 coat protein” value under setting [2] came to 18.2 nM and the “apparent KD of MS2 coat protein” value under setting [3] is 879 nM.

Take “AGUCCAGCCUGAGCUGGACUGAAGCAUGUACAUGAGGAUCACCCAUGUUCAUGUGCAGGCUUUUUGCUCGUCUUAUG [JL-shm-2.01 JL mod] (puzzle: Sensor for hsa-mir-208a)”: the “apparent KD of MS2 coat protein” value is, setting by setting: under setting [1], 84.7 nM; under setting [2], 13.5 nM; under setting [3], 108 nM.

“AGUCCAGCGAAAGCUGGACAAAAGCAUGUACAUGAGGAUCACCCAUGUUCAUGUACAAGCUUUUUGCUCGUCUUGAA [JL mod - D95 - 9] (puzzle: Sensor for hsa-mir-208a)”: the “apparent KD of MS2 coat protein” value reads like this: under setting [1], 313 nM; under setting [2], 17.1 nM; under setting [3], 611 nM.

Consider “AGUCCAGCGAAAGCUGGACAAAAGCGUGUACAUGAGGAUCACCCAUGUUCAUGUACAAGCUUUUUGCUCGUCUUAAA [JL mod - D95 - 6] (puzzle: Sensor for hsa-mir-208a)”, for which the “apparent KD of MS2 coat protein” value under setting [1] turned out to be 30.7 nM, the “apparent KD of MS2 coat protein” value under setting [2] was determined as 17.3 nM and the “apparent KD of MS2 coat protein” value under setting [3] is 96.2 nM.

“AGUCGAGCCUGAGCUCGACAAAAGCAUGUACAUGAGGAUCACCCAUGUCAUGUACAAGCUUUUUGCUCGUCUUAAAA [Mat - hsa-mir-208a - Mod of JL - D19] (puzzle: Sensor for hsa-mir-208a)”: the “apparent KD of MS2 coat protein” value runs as follows: under setting [1], 238 nM; under setting [2], 13.5 nM; under setting [3], 264 nM.

Take “AGUGGAGCCUGAGCUCCACAAAAGCAUGUACAUGAGGAUCACCCAUGUCAUGUACAAGCUUUUUGCUCGUCUUAAAA [Mat - hsa-mir-208a - Mod of JL - D18] (Eterna round: R96, puzzle: Sensor for hsa-mir-208a)”: the “apparent KD of MS2 coat protein” value runs as follows: (input ligand: FMN 200 uM) 552 nM; under setting [4], 14 nM; (input ligand: none) 502 nM.

Turning to “AGUGGAGCCUGAGCUCCACAAAAGCAUGUACAUGAGGAUCACCCAUGUCAUGUACAAGCUUUUUGCUCGUCUUAAAA [Mat - hsa-mir-208a - Mod of JL - D18] (puzzle: Sensor for hsa-mir-208a)”, the “apparent KD of MS2 coat protein” value came out at 536 nM under setting [1], 18.8 nM under setting [2] and 423 nM under setting [3].

Regarding “AUAAAACAUGAGGAUCACCCAUGUCAACAAAGUCGAGGAUAUGGGCAAAGAAAAGAAUAACCAGAAGGCGAAUAAU [salish99_ss1_r3_055] (puzzle: Same State 1)”, the “apparent KD of MS2 coat protein” value by setting is: under setting [1], 51.5 nM; under setting [2], 315 nM; under setting [3], 316 nM.

With “AUAAAACAUGAGGAUCACCCAUGUCUCUAAAGUCGAGGAUAUGGGCAAAUAAUAUAAGAACCAGAAGGCGAAUAAU [SS1 Teenbexe 3] (puzzle: Same State 1)”, the “apparent KD of MS2 coat protein” value under setting [1] was found to be 58.1 nM, the “apparent KD of MS2 coat protein” value under setting [2] stood at 51.2 nM and the “apparent KD of MS2 coat protein” value under setting [3] was 530 nM.

In the case of “AUAACAAUGGCAGGAUAUGGGAUUGGAAGUGUUCCAGAAGGGCCAUAACGGCGAUGGACAUGAGGAUCACCCAUGUCUUAGCCU [MOD2 Powerstrip SSNG 1.4] (Eterna round: R96, puzzle: Same State NG 1)”, the “apparent KD of MS2 coat protein” value was found to be 14.3 nM (input ligand: FMN 200 uM), 6.26 nM under setting [4] and 15 nM (input ligand: none).

As to “AUAAGUUCGAUGCUCGUCUCUCCGUACAAACAUGAGGAUCACCCAUGUGACUGGGCAAUAGCCCAAUCAGUAUGGCC [Beongetiqu] (puzzle: Sensor for hsa-mir-208a)”, the “apparent KD of MS2 coat protein” value by setting is: under setting [1], 34.8 nM; under setting [2], 22.8 nM; under setting [3], 34.4 nM.

For the sequence “AUAAGUUUGAUGCUCGUCUCUCCGUACAAACAUGAGGAUCACCCAUGUGGUCGGGAAGUAGCCCGGCCAGUAUGACC [Rigebelain] (puzzle: Sensor for hsa-mir-208a)”, the “apparent KD of MS2 coat protein” value reads like this: under setting [1], 32.7 nM; under setting [2], 24.4 nM; under setting [3], 35.2 nM.

For “AUACAUAUCAGAGGAUAUCACGUCGUUUAGACGUGAGAAGGCUGAUCACACAUGAAUAUUAAUACAUGAGGAUCACCCAUGUAU [SSNG1/14-A3] (Eterna round: R96, puzzle: Same State NG 1)”, the “apparent KD of MS2 coat protein” value was 13.7 nM (input ligand: FMN 200 uM), 13.4 nM under setting [4] and 20.9 nM (input ligand: none).

As to “AUAGUUGCCGAAGGAUAUGAUGAGGAUCACCCAUCAGAAGGUCGGCUAUUGGGUGGACAUGAGGAUCACCCGUGUUCUUUGGUC (Eterna round: R96, puzzle: Same State NG 1)”, the “apparent KD of MS2 coat protein” value came to 30.6 nM (input ligand: FMN 200 uM), 22.5 nM under setting [4] and 32.3 nM (input ligand: none).

Consider “AUAGUUGCCGAAGGAUAUGAUGAGGAUCACCCAUCAGAAGGUUGGCUAUUGGGUGGACAUGAGGAUCACCCGUGUUCUUUGGUA (Eterna round: R96, puzzle: Same State NG 1)”, for which the “apparent KD of MS2 coat protein” value amounted to 50.3 nM (input ligand: FMN 200 uM), 47.5 nM under setting [4] and 82.1 nM (input ligand: none).

For the sequence “AUAGUUUCCGAAGGAUAUGAUGAGGAUCACCCAUCAGAAGGUUGGCUAUUGGGCGGACAUGAGGAUCACCCAUGUCUUUCUGUU (Eterna round: R96, puzzle: Same State NG 1)”, the “apparent KD of MS2 coat protein” value (input ligand: FMN 200 uM) was 12.7 nM, the “apparent KD of MS2 coat protein” value under setting [4] is 10.7 nM and the “apparent KD of MS2 coat protein” value (input ligand: none) is 18 nM.

“AUAUCCUUUUUAUACAUGAGGAUCACCCAUGUUUUUCUUACGUAGGAUAUCGUUGUUUUUUUUUACGAGAAGGACGUAGAAUGU [JR_SSND3_Sub063] (Eterna round: R96, puzzle: Same State NG 3)”: the “apparent KD of MS2 coat protein” value under setting [4] came to 23.5 nM.

With “AUAUGAGAAGCAGGAUAUGCGGAGAAGAAAGAAGCAGAAGGGCUUAUGGGACAACAUGAGGAUCACCCAUGUUCUCUGUGAUGA [AK SSNG1-V2-3] (Eterna round: R96, puzzle: Same State NG 1)”, the “apparent KD of MS2 coat protein” value reads like this: (input ligand: FMN 200 uM) 24.3 nM; under setting [4], 48.9 nM; (input ligand: none) 56.5 nM.

“AUAUGAGCUAUGGAGGAUAUCCAUAACAAGACAUGAGGAUCACCCAUGUAAUCAAAACAAUAAUGGGAGAAGGCCAUAGCUCAAU [SS 2 M47] (Eterna round: R96, puzzle: Same State 2)”: the “apparent KD of MS2 coat protein” value under setting [4] came to 46.9 nM.
